Earlier results on 1 substance are cited in publication PMC8712716.

For orientation: Kd means a measure of binding affinity in units of concentration.

Targets include FGF-2 (Homo sapiens) (UniProt P09038); GRP78 (Homo sapiens) (UniProt P11021); TGF-beta1 (Homo sapiens) (UniProt P01137); NGF-beta (Homo sapiens) (UniProt P01138); TNF-alpha (Homo sapiens) (UniProt P01375); TGF-beta2 (Homo sapiens) (UniProt P61812).

Some results are limits rather than exact numbers.

alpha-2-macroglobulin, sequence (P01023 24-1474): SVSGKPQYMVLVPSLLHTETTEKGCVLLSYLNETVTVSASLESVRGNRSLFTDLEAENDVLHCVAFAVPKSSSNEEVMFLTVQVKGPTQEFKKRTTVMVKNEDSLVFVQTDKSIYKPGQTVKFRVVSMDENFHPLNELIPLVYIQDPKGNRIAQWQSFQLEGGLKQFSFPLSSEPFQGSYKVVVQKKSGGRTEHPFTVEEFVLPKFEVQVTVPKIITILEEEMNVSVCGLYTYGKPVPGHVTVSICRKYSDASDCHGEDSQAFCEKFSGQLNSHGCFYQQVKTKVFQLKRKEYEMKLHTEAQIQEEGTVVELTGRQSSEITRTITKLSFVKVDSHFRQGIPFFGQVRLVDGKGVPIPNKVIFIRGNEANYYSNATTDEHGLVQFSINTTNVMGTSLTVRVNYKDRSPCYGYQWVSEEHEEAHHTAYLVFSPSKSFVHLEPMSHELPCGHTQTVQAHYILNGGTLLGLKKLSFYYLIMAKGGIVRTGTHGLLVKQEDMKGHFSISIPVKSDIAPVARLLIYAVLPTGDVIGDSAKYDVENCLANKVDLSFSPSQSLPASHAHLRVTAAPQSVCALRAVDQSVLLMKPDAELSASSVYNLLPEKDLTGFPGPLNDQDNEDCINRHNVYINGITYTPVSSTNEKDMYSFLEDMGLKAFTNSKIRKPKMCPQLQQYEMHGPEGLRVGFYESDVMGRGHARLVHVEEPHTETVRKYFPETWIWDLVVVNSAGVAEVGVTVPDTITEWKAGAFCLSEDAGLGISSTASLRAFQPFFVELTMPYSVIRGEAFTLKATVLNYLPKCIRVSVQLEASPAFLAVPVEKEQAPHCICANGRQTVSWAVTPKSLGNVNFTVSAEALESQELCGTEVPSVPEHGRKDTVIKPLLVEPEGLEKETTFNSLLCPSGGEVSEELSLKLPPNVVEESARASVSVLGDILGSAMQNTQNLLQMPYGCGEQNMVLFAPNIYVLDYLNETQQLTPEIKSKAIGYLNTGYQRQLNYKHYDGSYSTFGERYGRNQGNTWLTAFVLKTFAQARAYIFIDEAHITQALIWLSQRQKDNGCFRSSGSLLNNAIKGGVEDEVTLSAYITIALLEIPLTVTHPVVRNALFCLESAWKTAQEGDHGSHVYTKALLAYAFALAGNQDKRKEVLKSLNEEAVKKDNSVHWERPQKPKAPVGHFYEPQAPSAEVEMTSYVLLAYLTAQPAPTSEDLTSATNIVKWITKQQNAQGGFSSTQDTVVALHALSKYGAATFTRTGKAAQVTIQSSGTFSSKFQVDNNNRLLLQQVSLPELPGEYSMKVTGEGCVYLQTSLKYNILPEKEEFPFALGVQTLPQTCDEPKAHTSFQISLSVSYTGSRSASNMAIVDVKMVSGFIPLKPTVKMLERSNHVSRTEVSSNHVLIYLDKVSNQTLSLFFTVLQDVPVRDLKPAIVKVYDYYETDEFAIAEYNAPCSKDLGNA
TGF-beta2 (Homo sapiens), sequence (P61812 303-414): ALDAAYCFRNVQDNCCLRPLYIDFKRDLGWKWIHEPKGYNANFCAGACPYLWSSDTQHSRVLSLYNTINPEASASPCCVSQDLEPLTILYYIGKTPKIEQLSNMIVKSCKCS
GRP78 (Homo sapiens), sequence (P11021 19-654): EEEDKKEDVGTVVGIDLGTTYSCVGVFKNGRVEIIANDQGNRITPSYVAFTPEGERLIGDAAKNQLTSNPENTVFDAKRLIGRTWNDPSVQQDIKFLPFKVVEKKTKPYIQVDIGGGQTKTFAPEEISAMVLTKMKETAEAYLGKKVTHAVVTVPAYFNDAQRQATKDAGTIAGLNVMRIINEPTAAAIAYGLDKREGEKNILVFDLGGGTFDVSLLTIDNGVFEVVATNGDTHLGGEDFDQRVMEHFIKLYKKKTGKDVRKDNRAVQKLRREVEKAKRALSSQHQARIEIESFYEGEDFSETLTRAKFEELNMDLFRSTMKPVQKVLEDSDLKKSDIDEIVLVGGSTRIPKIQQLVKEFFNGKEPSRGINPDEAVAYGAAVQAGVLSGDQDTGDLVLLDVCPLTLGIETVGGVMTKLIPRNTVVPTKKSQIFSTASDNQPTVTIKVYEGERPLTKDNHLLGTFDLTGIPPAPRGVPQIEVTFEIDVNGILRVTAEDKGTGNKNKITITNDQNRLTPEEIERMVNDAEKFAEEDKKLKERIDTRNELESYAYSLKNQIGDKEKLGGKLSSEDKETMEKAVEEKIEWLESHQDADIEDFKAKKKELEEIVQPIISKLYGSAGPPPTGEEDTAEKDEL
TGF-beta1 (Homo sapiens), sequence (P01137 279-390): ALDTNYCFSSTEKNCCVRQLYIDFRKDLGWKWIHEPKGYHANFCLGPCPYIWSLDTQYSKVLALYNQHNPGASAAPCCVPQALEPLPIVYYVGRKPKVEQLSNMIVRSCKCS
FGF-2 (Homo sapiens), sequence (P09038 143-288): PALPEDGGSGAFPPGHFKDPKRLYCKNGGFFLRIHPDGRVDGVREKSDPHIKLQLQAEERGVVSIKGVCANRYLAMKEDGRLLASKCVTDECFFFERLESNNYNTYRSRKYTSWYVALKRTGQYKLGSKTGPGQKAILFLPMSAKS
TNF-alpha (Homo sapiens), sequence (P01375 77-233): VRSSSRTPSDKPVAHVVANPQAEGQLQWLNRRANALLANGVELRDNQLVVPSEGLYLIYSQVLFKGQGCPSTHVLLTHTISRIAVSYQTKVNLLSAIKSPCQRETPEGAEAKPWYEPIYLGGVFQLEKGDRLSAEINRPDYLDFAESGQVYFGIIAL
NGF-beta (Homo sapiens), sequence (P01138 122-241): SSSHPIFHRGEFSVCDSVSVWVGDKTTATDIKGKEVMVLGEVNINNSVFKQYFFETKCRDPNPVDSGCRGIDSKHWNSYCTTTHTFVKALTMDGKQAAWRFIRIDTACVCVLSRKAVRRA

In the case of “alpha-2-macroglobulin (from UniProt P01023)”, the Kd with FGF-2 (Homo sapiens) was 590 nM; with GRP78 (Homo sapiens), 0.15 nM; with TGF-beta1 (Homo sapiens) it was 80 nM; with NGF-beta (Homo sapiens), 110 nM; in the data set with TNF-alpha (Homo sapiens), above 750 nM; with TGF-beta2 (Homo sapiens), 12 nM.
